What was measured:
[1] = target: T1, estrogen receptor alpha (ERα) (human (endogenous in MCF-7 and T-47D)), P03372; experiment: structured illumination microscopy (N-SIM) of double immunofluorescence; T-47D cells, formalin-fixed paraffin cell-block sections; two primary antibodies, Alexa Fluor 488 and 594 secondaries; % of ER dimer = yellow area/(yellow + green + red areas) x 100; conditions: remark: other sources report otherwise
T1 chain: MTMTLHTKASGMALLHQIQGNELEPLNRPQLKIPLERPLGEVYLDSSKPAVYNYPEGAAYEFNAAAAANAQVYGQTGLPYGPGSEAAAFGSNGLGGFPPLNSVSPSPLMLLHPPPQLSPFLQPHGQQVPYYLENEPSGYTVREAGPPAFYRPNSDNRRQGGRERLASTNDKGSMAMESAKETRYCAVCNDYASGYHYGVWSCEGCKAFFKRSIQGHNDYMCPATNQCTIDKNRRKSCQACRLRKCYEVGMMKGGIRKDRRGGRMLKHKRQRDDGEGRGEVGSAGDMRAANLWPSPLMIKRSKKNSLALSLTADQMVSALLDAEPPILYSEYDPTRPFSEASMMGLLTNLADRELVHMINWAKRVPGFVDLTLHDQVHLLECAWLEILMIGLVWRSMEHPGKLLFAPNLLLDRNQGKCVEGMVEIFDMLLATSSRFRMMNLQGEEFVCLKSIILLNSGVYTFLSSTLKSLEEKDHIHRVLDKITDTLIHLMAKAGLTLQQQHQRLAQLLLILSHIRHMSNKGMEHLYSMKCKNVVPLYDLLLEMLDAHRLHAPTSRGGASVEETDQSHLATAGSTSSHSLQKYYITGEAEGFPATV

[2] = target: T1, estrogen receptor alpha (ERα) (human …); experiment: structured illumination microscopy (N-SIM) of double immunofluorescence; MCF-7 cells, formalin-fixed paraffin cell-block sections; two primary antibodies, Alexa Fluor 488 and 594 secondaries; % of ER dimer = yellow area/(yellow + green + red areas) x 100; homodimer also followed with 10 nM E2 for 15, 45, 90 min; conditions: remark: other sources report otherwise

% of ER dimer (N-SIM) [1]: 13.4% | % of ER dimer (N-SIM) [2]: 23%
B1: estrogen receptor alpha (ERα), P03372 1-595 (receptor)
chain: MTMTLHTKASGMALLHQIQGNELEPLNRPQLKIPLERPLGEVYLDSSKPAVYNYPEGAAYEFNAAAAANAQVYGQTGLPYGPGSEAAAFGSNGLGGFPPLNSVSPSPLMLLHPPPQLSPFLQPHGQQVPYYLENEPSGYTVREAGPPAFYRPNSDNRRQGGRERLASTNDKGSMAMESAKETRYCAVCNDYASGYHYGVWSCEGCKAFFKRSIQGHNDYMCPATNQCTIDKNRRKSCQACRLRKCYEVGMMKGGIRKDRRGGRMLKHKRQRDDGEGRGEVGSAGDMRAANLWPSPLMIKRSKKNSLALSLTADQMVSALLDAEPPILYSEYDPTRPFSEASMMGLLTNLADRELVHMINWAKRVPGFVDLTLHDQVHLLECAWLEILMIGLVWRSMEHPGKLLFAPNLLLDRNQGKCVEGMVEIFDMLLATSSRFRMMNLQGEEFVCLKSIILLNSGVYTFLSSTLKSLEEKDHIHRVLDKITDTLIHLMAKAGLTLQQQHQRLAQLLLILSHIRHMSNKGMEHLYSMKCKNVVPLYDLLLEMLDAHRLHAPTSRGGASVEETDQSHLATAGSTSSHSLQKYYITGEAEGFPATV
